The source of these data is paper PMC2924314, “Peptides derived from the HIV-1 integrase promote HIV-1 infection and multi-integration of viral cDNA in LEDGF/p75-knockdown cells” (Virology Journal, 2010).

As usually defined, the Kd is the equilibrium constant for the complex coming apart.

The target in the test is INS (IN derived-integrase stimulatory peptide) (HIV-1). Nature of the test: ELISA. For orientation: ELISA stands for enzyme-linked immunosorbent assay.

“Lens Epithelium Derived Growth Factor p75 (LEDGF/p75), histidine-tagged recombinant, O75475 1-530 (natural protein; other documents disagree on this pair)” showed a Kd of 2.2 µM.
